Where a chain is given by its changes, count along the chain named.
B1: 401.11.38 (antibody, name in Kabat numbering, V domains shown)
VH: QVQLVGSGGGLVKPGRSLRLSCAASGFTFDDYAMHWVRQAPGKGLEWVATIIWNSAIIGYADSVKGRFIVSRDNAKNSLYLQMNSLRAEDMALYYCAKSMCSSSGCPDGYFDSWGQGTLVTVSS
VL: DIQMTQSPSSVSASVGDRVTITCRASQHISSWLAWYQQKPGKAPNLLIYAASSLQSGVSSRFSGSGSGTDFTLTISSLQPEDFATYYCQQANRFPLTFGGGTKLEIKR
B2: 401.11.64 (antibody, name in Kabat numbering, V domains shown)
VH: B1 VH with S99D, S102V
VL: B1 VL
B3: 401.11.46 (antibody, name in Kabat numbering, V domains shown)
VH: B1 VH with S99D, M100F
VL: B1 VL
B4: 401.11.45 (antibody, name in Kabat numbering, V domains shown)
VH: B1 VH with S99D, M100R
VL: B1 VL
B5: 401.11.65 (antibody, name in Kabat numbering, V domains shown)
VH: B1 VH with S99D, S102K
VL: B1 VL
B6: 401.11.49 (antibody, name in Kabat numbering, V domains shown)
VH: B1 VH with S99D, M100S
VL: B1 VL
B7: 401.11.63 (antibody, name in Kabat numbering, V domains shown)
VH: B1 VH with S99D, S102L
VL: B1 VL
B8: 401.11.44 (antibody, name in Kabat numbering, V domains shown)
VH: B1 VH with S99D, M100K
VL: B1 VL
B9: 401.11.50 (antibody, name in Kabat numbering, V domains shown)
VH: B1 VH with S99D, M100G
VL: B1 VL
B10: 401.11.68 (antibody, name in Kabat numbering, V domains shown)
VH: B1 VH with S99D, S102G
VL: B1 VL
B11: 401.11.61 (antibody, name in Kabat numbering, V domains shown)
VH: B1 VH with S99D, S102T
VL: B1 VL
B12: 401.11.66 (antibody, name in Kabat numbering, V domains shown)
VH: B1 VH with S99D, S102R
VL: B1 VL
B13: 401.11.67 (antibody, name in Kabat numbering, V domains shown)
VH: B1 VH with S99D, S102Y
VL: B1 VL
B14: 401.11.108 (antibody, name in Kabat numbering, V domains shown)
VH: B1 VH with S99D, P107R
VL: B1 VL
B15: 401.11.119 (antibody, name in Kabat numbering, V domains shown)
VH: B1 VH with S99D, G109A
VL: B1 VL
B16: 401.11.136 (antibody, name in Kabat numbering, V domains shown)
VH: B1 VH with S99D, S113K
VL: B1 VL
B17: 401.11.124 (antibody, name in Kabat numbering, V domains shown)
VH: B1 VH with S99D, Y110W
VL: B1 VL
B18: 401.11.104 (antibody, name in Kabat numbering, V domains shown)
VH: B1 VH with S99D, P107L
VL: B1 VL
B19: 401.11.127 (antibody, name in Kabat numbering, V domains shown)
VH: B1 VH with S99D, Y110Q
VL: B1 VL
B20: 401.11.133 (antibody, name in Kabat numbering, V domains shown)
VH: B1 VH with S99D, S113W
VL: B1 VL
B21: 401.11.117 (antibody, name in Kabat numbering, V domains shown)
VH: B1 VH with S99D, D108Q
VL: B1 VL
B22: 401.11.125 (antibody, name in Kabat numbering, V domains shown)
VH: B1 VH with S99D, Y110F
VL: B1 VL
B23: 401.11.87 (antibody, name in Kabat numbering, V domains shown)
VH: B1 VH with S99D, G105S
VL: B1 VL
B24: 401.11.90 (antibody, name in Kabat numbering, V domains shown)
VH: B1 VH with S99D, G105K
VL: B1 VL
B25: 401.11.88 (antibody, name in Kabat numbering, V domains shown)
VH: B1 VH with S99D, G105A
VL: B1 VL
B26: 401.11.112 (antibody, name in Kabat numbering, V domains shown)
VH: B1 VH with S99D, D108S
VL: B1 VL
B27: 401.11.132 (antibody, name in Kabat numbering, V domains shown)
VH: B1 VH with S99D, S113T
VL: B1 VL
B28: 401.11.122 (antibody, name in Kabat numbering, V domains shown)
VH: B1 VH with S99D, G109K
VL: B1 VL
B29: 401.11.101 (antibody, name in Kabat numbering, V domains shown)
VH: B1 VH with S99D, P107S
VL: B1 VL
B30: 401.11.102 (antibody, name in Kabat numbering, V domains shown)
VH: B1 VH with S99D, P107T
VL: B1 VL
B31: 401.11.135 (antibody, name in Kabat numbering, V domains shown)
VH: B1 VH with S99D, S113V
VL: B1 VL
B32: 401.11.107 (antibody, name in Kabat numbering, V domains shown)
VH: B1 VH with S99D, P107Y
VL: B1 VL
B33: 401.11.115 (antibody, name in Kabat numbering, V domains shown)
VH: B1 VH with S99D, D108Y
VL: B1 VL
B34: 401.11.110 (antibody, name in Kabat numbering, V domains shown)
VH: B1 VH with S99D, D108K
VL: B1 VL
B35: 401.11.139 (antibody, name in Kabat numbering, V domains shown)
VH: B1 VH with S99D, S113G
VL: B1 VL
B36: 401.11.109 (antibody, name in Kabat numbering, V domains shown)
VH: B1 VH with S99D, P107W
VL: B1 VL
B37: 401.11.137 (antibody, name in Kabat numbering, V domains shown)
VH: B1 VH with S99D, S113R
VL: B1 VL
B38: 401.11.126 (antibody, name in Kabat numbering, V domains shown)
VH: B1 VH with S99D, Y110S
VL: B1 VL
B39: 401.11.89 (antibody, name in Kabat numbering, V domains shown)
VH: B1 VH with S99D, G105D
VL: B1 VL
B40: 401.11.134 (antibody, name in Kabat numbering, V domains shown)
VH: B1 VH with S99D, S113L
VL: B1 VL
B41: 401.11.111 (antibody, name in Kabat numbering, V domains shown)
VH: B1 VH with S99D, D108R
VL: B1 VL
B42: 401.11.113 (antibody, name in Kabat numbering, V domains shown)
VH: B1 VH with S99D, D108G
VL: B1 VL
B43: 401.11.103 (antibody, name in Kabat numbering, V domains shown)
VH: B1 VH with S99D, P107G
VL: B1 VL
B44: 401.11.116 (antibody, name in Kabat numbering, V domains shown)
VH: B1 VH with S99D, D108F
VL: B1 VL
B45: 401.11.123 (antibody, name in Kabat numbering, V domains shown)
VH: B1 VH with S99D, G109R
VL: B1 VL
B46: 401.11.138 (antibody, name in Kabat numbering, V domains shown)
VH: B1 VH with S99D, S113Y
VL: B1 VL
B47: 401.11.118 (antibody, name in Kabat numbering, V domains shown)
VH: B1 VH with S99D, G109S
VL: B1 VL
B48: 401.11.131 (antibody, name in Kabat numbering, V domains shown)
VH: B1 VH with S99D, S113D
VL: B1 VL

biological target: T1, Human CD1d/β2M (human, UniProt P15813 20-301; P61769 21-119); assay: SPR, transfection supernatant
T1 construct: also called hCD1d; recombinant human CD1d

Row | binding result | Kd [nM] | Binder
1 | no binding | – | B1
2 | – | 0.23 | B2
3 | – | 0.303 | B3
4 | – | 0.249 | B4
5 | – | 1.67 | B5
6 | – | 0.401 | B6
7 | – | 0.189 | B7
8 | – | 0.431 | B8
9 | – | 0.187 | B9
10 | – | 1.17 | B10
11 | – | 0.242 | B11
12 | – | 0.156 | B12
13 | – | 0.0485 | B13

biological target: T1, Human CD1d/β2M; assay: SPR, transfection supernatant; remark: another data set of the same source

Row | Kd [nM] | binding result | Binder
14 | < 0.01 | – | B14
15 | 0.877 | – | B15
16 | < 0.01 | – | B16
17 | 1.38 | – | B17
18 | 0.487 | – | B18
19 | 2.7 | – | B19
20 | 0.167 | – | B20
21 | 1.33 | – | B21
22 | 0.535 | – | B22
23 | 7.13 | – | B23
24 | < 0.01 | – | B24
25 | 1.89 | – | B25
26 | 2.43 | – | B26
27 | 0.569 | – | B27
28 | 0.13 | – | B28
29 | < 0.01 | – | B29
30 | 0.457 | – | B30
31 | 0.421 | – | B31

Row | Kd [nM] | binding result | Binder
32 | 0.996 | – | B32
33 | 0.667 | – | B33
34 | 0.247 | – | B34
35 | 0.594 | – | B35
36 | – | no binding | B36
37 | 0.938 | – | B37
38 | 0.0313 | – | B38
39 | 5.3 | – | B39
40 | 0.532 | – | B40
41 | < 0.01 | – | B41
42 | 0.679 | – | B42
43 | < 0.01 | – | B43
44 | 37.7 | – | B44
45 | 0.239 | – | B45
46 | 0.171 | – | B46
47 | < 0.01 | – | B47
48 | 0.2 | – | B48

— patent publication US20140286957A1 (Teva, published 2014)
